Legend:
[1] = target: recombinant mouse CD226-his (50232-M08H; SinoBiological) (mouse) (UniProt Q8K4F0); assay: SPR (Biacore T200), single-cycle kinetics, mCD226-his captured by anti-His, 1:1 Langmuir fit
[2] = target: recombinant mouse TIGIT-Fc-his (771808; Biolegend) (mouse) (UniProt P86176); assay: SPR (Biacore T200), single-cycle kinetics, mTIGIT-Fc-his captured by anti-His, 1:1 Langmuir fit
[3] = target: recombinant mouse CD96-his (788806; Biolegend) (mouse) (UniProt Q3U0X8); assay: SPR (Biacore T200), single-cycle kinetics, mCD96-his captured by anti-His, 1:1 Langmuir fit
Sequence of UniProt Q3U0X8 (Q3U0X8 22-536 limits assumed): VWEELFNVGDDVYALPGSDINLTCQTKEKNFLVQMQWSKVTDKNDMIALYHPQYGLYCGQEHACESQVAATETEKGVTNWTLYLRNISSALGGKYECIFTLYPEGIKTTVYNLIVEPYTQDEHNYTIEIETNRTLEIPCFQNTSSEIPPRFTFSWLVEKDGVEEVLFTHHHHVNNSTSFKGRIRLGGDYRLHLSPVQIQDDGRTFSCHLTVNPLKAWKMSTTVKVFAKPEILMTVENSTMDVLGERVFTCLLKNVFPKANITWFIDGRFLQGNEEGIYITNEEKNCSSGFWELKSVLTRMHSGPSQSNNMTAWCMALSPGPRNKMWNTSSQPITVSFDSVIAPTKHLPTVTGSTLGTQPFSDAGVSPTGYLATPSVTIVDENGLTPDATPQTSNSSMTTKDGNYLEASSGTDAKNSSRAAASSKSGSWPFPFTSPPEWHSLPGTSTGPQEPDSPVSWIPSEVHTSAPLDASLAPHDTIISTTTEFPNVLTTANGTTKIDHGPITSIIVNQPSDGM

Sequence of UniProt P86176 (P86176 29-148 limits assumed): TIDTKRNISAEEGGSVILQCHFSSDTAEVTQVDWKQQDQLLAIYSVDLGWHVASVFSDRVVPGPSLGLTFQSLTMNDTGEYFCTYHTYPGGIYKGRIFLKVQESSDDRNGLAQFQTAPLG
Sequence of UniProt Q8K4F0 (Q8K4F0 19-254 limits assumed, stated change not applied): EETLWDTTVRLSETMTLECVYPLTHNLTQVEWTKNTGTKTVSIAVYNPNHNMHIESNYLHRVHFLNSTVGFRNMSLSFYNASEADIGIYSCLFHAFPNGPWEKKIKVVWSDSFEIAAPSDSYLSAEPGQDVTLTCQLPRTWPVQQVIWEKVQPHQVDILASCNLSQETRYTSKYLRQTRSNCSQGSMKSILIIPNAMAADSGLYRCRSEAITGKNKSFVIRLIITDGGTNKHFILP

Kd [1]: 0.83 nM
Kd [2]: 2.26 nM
koff [2]: 0.0646 s⁻¹
kon [2]: 2.25e+07 M⁻¹ s⁻¹
Kd [3]: 4.07 nM
koff [3]: 0.00455 s⁻¹
kon [3]: 1.17e+06 M⁻¹ s⁻¹
Substance: PVR-Fc (786608; Biolegend), full-length mouse PVR ECD-Fc (Fc fusion)

— patent publication US20240309052A1
